Laboratory results taken from patent US5674712.

Target: sub-unit alpha of human chorionic gonadotropin (human) (UniProt P01215)
Experiment: SPR (BIACORE), alpha hCG fixed to the sensor

B1: antibody scFv5E8 specific for sub-unit alpha of human chorionic gonadotropin (scFv)
scFv: QVQLQQSGAELMKPGASVKLTASCSGFSIKDTYMHWVKQRPEQGLEWIGRIDPANGNTKYDPKFQGKATITADTSSNTAYLQLSSLTSEDTAVYYCHRFEFAMDYWGQGTTVTVSSGGGGSGGGGSGGGGSDIQGTQSPASLVVSLGQRATISCRASKSVSASGYSYVNWYQQKPGQPPKLLIYLASNLESGVPARFSGSGSGTDFTLNIHPVEEEDAATYYCQHSRELPLTFGAGTKLEISMEELMIEGR
With B1 as the binder, how does the Kdiss, fold against MAb 5E8 read?
Its Kdiss, fold against MAb 5E8 is 300 times.
